Results from US20020090651A1.

Biological target: Xenopus FGF receptor-1 (Xenopus laevis) (UniProt P22182)
Assay: cell-based or functional assay

Sequence of UniProt P22182 (P22182 21-812): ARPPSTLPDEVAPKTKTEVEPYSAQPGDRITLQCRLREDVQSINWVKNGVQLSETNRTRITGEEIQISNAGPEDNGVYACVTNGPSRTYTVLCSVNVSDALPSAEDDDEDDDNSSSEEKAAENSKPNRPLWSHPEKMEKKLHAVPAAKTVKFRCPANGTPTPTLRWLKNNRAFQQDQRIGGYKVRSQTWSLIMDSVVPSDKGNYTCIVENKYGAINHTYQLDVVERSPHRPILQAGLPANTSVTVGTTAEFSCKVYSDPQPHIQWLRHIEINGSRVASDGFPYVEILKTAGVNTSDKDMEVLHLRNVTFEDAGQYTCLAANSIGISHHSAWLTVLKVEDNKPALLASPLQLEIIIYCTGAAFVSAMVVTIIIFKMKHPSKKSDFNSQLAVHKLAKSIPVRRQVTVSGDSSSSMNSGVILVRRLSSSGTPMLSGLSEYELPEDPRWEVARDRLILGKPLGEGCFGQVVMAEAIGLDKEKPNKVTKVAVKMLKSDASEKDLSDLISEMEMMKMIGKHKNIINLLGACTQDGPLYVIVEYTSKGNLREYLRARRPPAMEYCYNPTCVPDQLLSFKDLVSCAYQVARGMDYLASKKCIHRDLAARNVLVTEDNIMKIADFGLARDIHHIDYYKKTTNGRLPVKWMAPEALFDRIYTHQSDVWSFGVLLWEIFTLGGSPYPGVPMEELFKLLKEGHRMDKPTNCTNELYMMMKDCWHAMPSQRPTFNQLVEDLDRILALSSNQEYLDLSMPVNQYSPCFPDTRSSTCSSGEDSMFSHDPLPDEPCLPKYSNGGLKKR

Row | Substance | Ca2+ release (efflux) of Xenopus oocytes co-injected with ligand and FGF receptor mRNAs [fold]
1 | FRL-2 protein (ligand) | 2
2 | Xenopus bFGF (basic fibroblast growth factor), without a signal sequence (from UniProt P12226 1-155) (ligand) | 3
